This note sets out measurements from doi:10.1101/2025.09.10.675378 (bioRxiv, 2025).

This data set concerns the molecule itself. Briefly: native MS.

B1: hDVL3 PDZ-IDR2-DEP (aa 243-496) (domain or fragment)
chain: MSLNIITVTLNMEKYNFLGISIVGQSNERGDGGIYIGSIMKGGAVAADGRIEPGDMLLQVNEINFENMSNDDAVRVLREIVHKPGPITLTVAKCWDPSPRGCFTLPRSEPIRPIDPAAWVSHTAAMTGTFPAYGMSPSLSTITSTSSSITSSIPDTERLDDFHLSIHSDMAAIVKAMASPESGLEVRDRMWLKITIPNAFIGSDVVDWLYHNVEGFTDRREARKYASNLLKAGFIRHTVNKITFSEQCYYIFGD
Consider B1, for which the binding result is “binds”.

B2: phosphorylated hDVL3 PDZ-IDR2-DEP (PDZ-pIDR2-DEP, aa 243-496) (domain or fragment)
chain: MSLNIITVTLNMEKYNFLGISIVGQSNERGDGGIYIGSIMKGGAVAADGRIEPGDMLLQVNEINFENMSNDDAVRVLREIVHKPGPITLTVAKCWDPSPRGCFTLPRSEPIRPIDPAAWVSHTAAMTGTFPAYGMSPSLSTITSTSSSITSSIPDTERLDDFHLSIHSDMAAIVKAMASPESGLEVRDRMWLKITIPNAFIGSDVVDWLYHNVEGFTDRREARKYASNLLKAGFIRHTVNKITFSEQCYYIFGD
modifications: 8-19 phosphates on S/T residues of IDR2 (native ESI-MS), added by CK1ε
As for B2, the binding result is reported as “binds”.
